Measurements as given in the supplement of paper PMC9876800.

System: peptide library, one residue held at a place counted from the S/T acceptor
Experiment: relative phosphorylation of the sub-library (ratio to the mean residue at this position); higher = residue favoured
Details: human
Summary of the method: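 In 384-well plates, purified recombinant kinases (human or orthologue constructs) were incubated for 90 min under kinase-specific conditions with 50 μM biotinylated degenerate peptide sub-libraries and 50 μM ATP spiked with γ-32P-ATP. Each sub-library fixed a single residue at one position around a central Ser/Thr. Relative sub-library phosphorylation, measured by phosphorimaging and densitometry of streptavidin membrane spots, is given as a ratio to the mean residue at that position.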

Chain of GSK3A, construct: Full length (P49840 whole entry, looked up): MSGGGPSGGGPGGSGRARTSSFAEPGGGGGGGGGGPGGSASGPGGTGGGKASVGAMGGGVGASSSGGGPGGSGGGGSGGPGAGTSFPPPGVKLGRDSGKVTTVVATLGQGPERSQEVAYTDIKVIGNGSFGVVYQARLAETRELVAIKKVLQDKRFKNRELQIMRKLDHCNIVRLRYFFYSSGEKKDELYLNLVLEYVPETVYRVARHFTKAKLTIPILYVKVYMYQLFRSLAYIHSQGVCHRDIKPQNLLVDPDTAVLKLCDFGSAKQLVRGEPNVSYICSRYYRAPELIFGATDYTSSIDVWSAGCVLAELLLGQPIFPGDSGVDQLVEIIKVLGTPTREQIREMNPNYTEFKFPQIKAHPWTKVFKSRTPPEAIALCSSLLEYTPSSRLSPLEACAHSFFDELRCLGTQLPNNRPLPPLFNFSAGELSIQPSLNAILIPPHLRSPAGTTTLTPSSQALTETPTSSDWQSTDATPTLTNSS
Chain of CDK9, construct: Full length (P50750 whole entry, looked up): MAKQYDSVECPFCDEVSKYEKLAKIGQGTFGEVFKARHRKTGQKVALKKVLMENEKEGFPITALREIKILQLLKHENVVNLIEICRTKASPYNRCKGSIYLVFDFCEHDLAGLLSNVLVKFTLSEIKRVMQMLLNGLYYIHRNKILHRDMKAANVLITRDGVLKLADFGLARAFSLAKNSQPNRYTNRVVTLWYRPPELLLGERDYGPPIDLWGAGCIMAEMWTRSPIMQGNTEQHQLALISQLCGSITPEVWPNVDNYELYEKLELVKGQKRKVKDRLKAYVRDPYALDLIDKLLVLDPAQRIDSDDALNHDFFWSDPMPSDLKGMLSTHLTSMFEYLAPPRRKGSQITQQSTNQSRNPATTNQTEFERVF
Chain of BUB1, construct: Full length (O43683 whole entry, looked up): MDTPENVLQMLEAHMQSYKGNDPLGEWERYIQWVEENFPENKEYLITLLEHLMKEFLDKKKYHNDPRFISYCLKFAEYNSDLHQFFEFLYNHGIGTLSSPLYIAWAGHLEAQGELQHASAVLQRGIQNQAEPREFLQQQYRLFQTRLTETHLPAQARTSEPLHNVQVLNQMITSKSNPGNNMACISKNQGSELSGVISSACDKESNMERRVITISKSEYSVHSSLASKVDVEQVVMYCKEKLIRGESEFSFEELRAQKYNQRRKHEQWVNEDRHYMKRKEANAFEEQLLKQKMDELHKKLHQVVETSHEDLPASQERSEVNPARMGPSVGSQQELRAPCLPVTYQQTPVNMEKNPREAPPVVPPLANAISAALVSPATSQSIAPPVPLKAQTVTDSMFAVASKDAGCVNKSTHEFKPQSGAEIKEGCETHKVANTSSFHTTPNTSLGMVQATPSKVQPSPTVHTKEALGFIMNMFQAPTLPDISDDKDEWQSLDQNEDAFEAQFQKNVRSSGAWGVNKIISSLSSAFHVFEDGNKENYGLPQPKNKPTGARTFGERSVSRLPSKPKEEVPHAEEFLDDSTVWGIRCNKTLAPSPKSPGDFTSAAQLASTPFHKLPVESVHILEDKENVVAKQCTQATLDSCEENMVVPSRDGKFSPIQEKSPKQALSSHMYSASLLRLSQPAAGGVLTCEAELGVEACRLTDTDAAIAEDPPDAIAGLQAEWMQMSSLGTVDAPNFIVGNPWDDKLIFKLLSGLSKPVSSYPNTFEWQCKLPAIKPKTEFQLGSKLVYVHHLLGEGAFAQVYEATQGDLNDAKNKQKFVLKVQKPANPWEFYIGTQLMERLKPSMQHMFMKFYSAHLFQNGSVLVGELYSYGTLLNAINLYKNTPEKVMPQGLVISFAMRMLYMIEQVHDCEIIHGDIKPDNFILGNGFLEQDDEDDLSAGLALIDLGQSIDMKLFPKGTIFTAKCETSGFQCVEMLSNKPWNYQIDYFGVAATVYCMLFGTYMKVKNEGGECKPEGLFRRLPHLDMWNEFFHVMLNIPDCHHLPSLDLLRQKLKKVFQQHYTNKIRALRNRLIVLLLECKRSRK
Chain of MAP3K6, construct: aa620-950 (O95382 620-950, looked up): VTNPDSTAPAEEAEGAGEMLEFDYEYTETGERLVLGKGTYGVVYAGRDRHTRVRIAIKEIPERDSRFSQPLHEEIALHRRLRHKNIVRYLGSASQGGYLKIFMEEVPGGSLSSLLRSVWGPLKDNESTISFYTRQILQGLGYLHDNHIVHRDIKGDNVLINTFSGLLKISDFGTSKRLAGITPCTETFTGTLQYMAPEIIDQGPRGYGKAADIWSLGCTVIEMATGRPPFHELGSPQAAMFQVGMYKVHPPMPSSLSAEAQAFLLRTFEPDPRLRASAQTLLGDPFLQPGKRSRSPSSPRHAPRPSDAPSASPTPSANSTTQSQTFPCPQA

CDK9, construct: Full length (from UniProt P50750)
relative phosphorylation
Details | at +1 | at +2 | at +3 | at +4 | at -1 | at -2 | at -3 | at -4 | at -5
A fixed | 0.39 | 0.956 | 0.702 | 0.931 | 1.2 | 1.52 | 1.17 | 1.19 | 1.13
D fixed | 0.167 | 0.493 | 0.429 | 0.79 | 0.328 | 0.322 | 0.339 | 0.607 | 0.572
E fixed | 0.212 | 0.478 | 0.409 | 0.913 | 0.34 | 0.392 | 0.382 | 0.661 | 0.514
F fixed | 0.398 | 0.953 | 0.593 | 1.01 | 0.974 | 0.919 | 1.01 | 1.13 | 1.25
G fixed | 0.943 | 1.35 | 0.85 | 1.13 | 1.34 | 1.12 | 1.82 | 1.14 | 1.01
H fixed | 0.286 | 1.57 | 3 | 1.45 | 1.02 | 0.973 | 1.12 | 1.13 | 1.27
I fixed | 0.306 | 0.708 | 0.547 | 0.871 | 0.353 | 0.956 | 0.902 | 0.868 | 0.858
K fixed | 0.328 | 1.24 | 0.828 | 0.752 | 1.51 | 0.91 | 0.939 | 1.1 | 1.09
L fixed | 0.404 | 0.736 | 0.453 | 0.791 | 0.98 | 0.95 | 0.868 | 0.914 | 0.82
M fixed | 0.347 | 0.769 | 0.478 | 0.893 | 1.75 | 1.53 | 0.963 | 0.969 | 0.853
N fixed | 0.217 | 1.18 | 0.79 | 0.983 | 0.82 | 0.805 | 0.896 | 0.895 | 0.876
P fixed | 11.4 | 0.652 | 1.38 | 0.984 | 1.14 | 1.32 | 1.15 | 1.06 | 1.01
Q fixed | 0.285 | 0.928 | 0.987 | 0.928 | 1.08 | 0.796 | 0.813 | 0.804 | 0.833
R fixed | 0.327 | 2.31 | 2.45 | 0.973 | 1.78 | 1.23 | 1.68 | 1.18 | 1.23
V fixed | 0.388 | 0.734 | 0.545 | 0.84 | 0.559 | 0.821 | 0.939 | 0.855 | 0.892
W fixed | 0.331 | 0.95 | 1.28 | 1.57 | 0.836 | 1.32 | 0.958 | 1.31 | 1.46
Y fixed | 0.315 | 0.999 | 1.28 | 1.19 | 0.992 | 1.12 | 1.05 | 1.19 | 1.33
pThr fixed | 0.374 | 0.622 | 0.475 | 0.979 | 0.284 | 0.487 | 0.615 | 0.723 | 0.719
pTyr fixed | 0.379 | 0.536 | 1.18 | 1.2 | 0.558 | 0.526 | 0.607 | 0.838 | 0.714

MAP3K6, construct: aa620-950 (from UniProt O95382)
relative phosphorylation
Details | at +1 | at +2 | at +3 | at +4 | at -1 | at -2 | at -3 | at -4 | at -5
A fixed | 1.34 | 0.898 | 1.23 | 0.902 | 1.33 | 1.5 | 1.24 | 1.03 | 1.15
D fixed | 0.184 | 0.304 | 0.38 | 0.371 | 0.366 | 0.366 | 0.474 | 0.589 | 0.603
E fixed | 0.255 | 0.23 | 0.335 | 0.36 | 0.391 | 0.365 | 0.561 | 0.641 | 0.712
F fixed | 0.74 | 0.907 | 1.12 | 1.04 | 0.584 | 0.622 | 0.872 | 0.93 | 0.875
G fixed | 0.715 | 0.78 | 1.05 | 1.12 | 1.91 | 1.18 | 1.15 | 1.09 | 1.15
H fixed | 1.4 | 1.41 | 1.02 | 1.26 | 1.12 | 1.16 | 1.35 | 1.32 | 1.24
I fixed | 1.26 | 0.568 | 0.606 | 1.07 | 0.588 | 0.879 | 0.736 | 0.725 | 0.613
K fixed | 0.426 | 1.54 | 1.26 | 1.82 | 1.1 | 0.972 | 1.03 | 1.3 | 1.32
L fixed | 1.36 | 0.912 | 1.2 | 0.797 | 0.805 | 0.922 | 0.913 | 0.76 | 0.86
M fixed | 1.73 | 1.01 | 0.995 | 0.908 | 1.13 | 0.758 | 0.859 | 1.31 | 0.869
N fixed | 0.754 | 0.839 | 0.793 | 0.822 | 0.94 | 1.41 | 1.02 | 0.958 | 1.03
P fixed | 0.354 | 0.498 | 1.1 | 0.931 | 0.896 | 1.16 | 0.774 | 0.824 | 1.08
Q fixed | 0.844 | 0.83 | 0.946 | 0.931 | 0.891 | 1.25 | 1.08 | 1.02 | 1.14
R fixed | 0.594 | 2.05 | 1.57 | 1.66 | 1.72 | 1.37 | 1.55 | 1.18 | 1.43
V fixed | 1.62 | 0.726 | 0.984 | 0.853 | 0.917 | 1.35 | 0.984 | 1.02 | 0.996
W fixed | 1.38 | 1.19 | 1.1 | 0.955 | 0.951 | 0.748 | 1.25 | 1.12 | 1.05
Y fixed | 2.05 | 2.31 | 1.3 | 1.19 | 1.36 | 0.979 | 1.17 | 1.19 | 0.881
pThr fixed | 0.602 | 0.585 | 0.681 | 0.261 | 0.574 | 0.9 | 0.725 | 0.845 | 0.914
pTyr fixed | 0.421 | 0.294 | 0.614 | 0.356 | 0.673 | 0.548 | 0.787 | 0.736 | 0.917

GSK3A, construct: Full length (from UniProt P49840)
relative phosphorylation
Details | at +1 | at +2 | at +3 | at +4 | at -1 | at -2 | at -3 | at -4 | at -5
A fixed | 0.877 | 0.899 | 0.742 | 0.852 | 1.1 | 1.42 | 1.14 | 1.28 | 1.14
D fixed | 0.815 | 1.25 | 1.32 | 1.25 | 1.15 | 1.14 | 1.36 | 1.39 | 1.36
E fixed | 0.758 | 0.904 | 2.08 | 3.03 | 1.09 | 0.906 | 1.26 | 1.4 | 1.05
F fixed | 0.673 | 0.931 | 0.889 | 0.752 | 0.598 | 0.686 | 0.525 | 0.686 | 0.903
G fixed | 1.19 | 0.957 | 1.02 | 0.825 | 1.47 | 1.38 | 2.61 | 1.43 | 0.995
H fixed | 0.771 | 1.04 | 0.935 | 0.772 | 0.927 | 0.741 | 0.668 | 0.915 | 0.983
I fixed | 0.564 | 0.621 | 0.679 | 0.788 | 0.506 | 0.719 | 0.507 | 0.661 | 0.727
K fixed | 1.18 | 1.33 | 0.933 | 1.14 | 1.3 | 1.02 | 0.824 | 1.06 | 1.16
L fixed | 0.552 | 0.772 | 0.803 | 0.862 | 0.61 | 0.638 | 0.536 | 0.715 | 0.811
M fixed | 0.607 | 0.883 | 0.812 | 0.864 | 0.691 | 0.662 | 0.604 | 0.747 | 0.739
N fixed | 1.05 | 1.38 | 1 | 0.922 | 1.28 | 1.25 | 1.21 | 1.13 | 0.974
P fixed | 3.8 | 0.825 | 0.899 | 0.728 | 1.5 | 2.02 | 1.65 | 1.42 | 1.31
Q fixed | 0.858 | 1.35 | 1.2 | 1.03 | 1.35 | 1 | 1.09 | 0.894 | 0.887
R fixed | 1.15 | 1.03 | 1.01 | 0.82 | 1.31 | 1.26 | 1.21 | 0.951 | 1.01
V fixed | 0.634 | 0.703 | 0.718 | 0.695 | 0.616 | 0.777 | 0.605 | 0.721 | 0.963
W fixed | 0.793 | 1.15 | 1.07 | 0.766 | 0.724 | 0.728 | 0.592 | 0.828 | 1.1
Y fixed | 0.725 | 0.979 | 0.873 | 0.908 | 0.77 | 0.653 | 0.614 | 0.772 | 0.882
pThr fixed | 0.876 | 0.928 | 3.67 | 62.8 | 0.866 | 1.11 | 1.06 | 1.82 | 1.07
pTyr fixed | 1.15 | 1.09 | 2.41 | 3.12 | 1.52 | 1.34 | 1.37 | 1.45 | 1.69

BUB1, construct: Full length (from UniProt O43683)
relative phosphorylation
Details | at +1 | at +2 | at +3 | at +4 | at -1 | at -2 | at -3 | at -4 | at -5
A fixed | 0.963 | 0.738 | 0.95 | 0.855 | 0.796 | 0.718 | 1.66 | 1.24 | 0.423
D fixed | 0.375 | 0.267 | 0.416 | 0.455 | 0.321 | 0.411 | 0.232 | 0.61 | 0.245
E fixed | 0.325 | 0.331 | 0.379 | 0.424 | 0.289 | 0.284 | 0.347 | 0.865 | 0.246
F fixed | 0.541 | 1.13 | 0.784 | 0.78 | 0.855 | 0.411 | 0.389 | 0.739 | 0.486
G fixed | 1.34 | 1.09 | 1.09 | 1.31 | 0.502 | 0.418 | 0.918 | 1.06 | 0.377
H fixed | 0.807 | 1.22 | 0.969 | 1.04 | 0.902 | 0.597 | 0.591 | 0.882 | 0.393
I fixed | 0.594 | 0.761 | 0.565 | 1 | 0.551 | 1.8 | 0.839 | 0.556 | 1.12
K fixed | 3.21 | 2.02 | 1.22 | 1.93 | 2.21 | 3.31 | 1.2 | 1.66 | 0.472
L fixed | 0.552 | 0.851 | 0.543 | 0.849 | 1.43 | 1.13 | 0.526 | 1.16 | 4.97
M fixed | 0.759 | 0.986 | 0.777 | 0.96 | 1.32 | 0.851 | 0.656 | 1.13 | 1.3
N fixed | 0.662 | 0.583 | 0.711 | 1.07 | 0.566 | 0.584 | 0.616 | 0.558 | 0.388
P fixed | 0.367 | 2.16 | 4.04 | 0.962 | 1.33 | 0.721 | 3.77 | 1.5 | 1.53
Q fixed | 0.972 | 0.747 | 0.767 | 1.01 | 0.77 | 0.868 | 1.24 | 1.07 | 0.905
R fixed | 3.99 | 2.14 | 1.41 | 1.8 | 2.76 | 2.32 | 2.38 | 1.64 | 1.31
V fixed | 0.611 | 0.777 | 0.631 | 0.78 | 0.435 | 1.65 | 0.791 | 0.676 | 0.543
W fixed | 0.497 | 0.491 | 0.936 | 0.949 | 0.705 | 0.485 | 0.442 | 0.829 | 0.412
Y fixed | 0.442 | 0.713 | 0.813 | 0.824 | 1.26 | 0.452 | 0.405 | 0.827 | 1.87
pThr fixed | 0.373 | 0.328 | 0.586 | 0.443 | 0.199 | 0.249 | 0.375 | 0.475 | 0.408
pTyr fixed | 0.252 | 0.29 | 0.697 | 0.463 | 0.315 | 0.281 | 0.256 | 0.414 | 0.993
